Data: publication PMC9482650, “Quantitative fragmentomics allow affinity mapping of interactomes” (Nature Communications, 2022)

T1: DFNB31_2, Q9P202
T1 sequence (Q9P202 274-371, limits assumed, looked up): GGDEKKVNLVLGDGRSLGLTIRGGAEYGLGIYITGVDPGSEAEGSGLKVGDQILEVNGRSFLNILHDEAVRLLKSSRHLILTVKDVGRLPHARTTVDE

T2: RADIL, Q96JH8
T2 sequence (Q96JH8 971-1071, limits assumed, looked up): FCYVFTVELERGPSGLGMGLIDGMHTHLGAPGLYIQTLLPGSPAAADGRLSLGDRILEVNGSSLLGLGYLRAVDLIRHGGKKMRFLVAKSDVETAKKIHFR

T3: MPP2, Q14168
T3 sequence (Q14168 180-250, limits assumed, looked up): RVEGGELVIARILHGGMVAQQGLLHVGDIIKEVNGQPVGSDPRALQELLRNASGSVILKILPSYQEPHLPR

T4: LNX2_2, Q8N448
T4 sequence (Q8N448 334-432, limits assumed, looked up): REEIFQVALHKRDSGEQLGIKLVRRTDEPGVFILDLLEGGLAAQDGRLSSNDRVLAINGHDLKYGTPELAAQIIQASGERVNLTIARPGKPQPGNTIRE

T5: PCLO, Q9Y6V0
T5 sequence (Q9Y6V0 4491-4600, limits assumed, looked up): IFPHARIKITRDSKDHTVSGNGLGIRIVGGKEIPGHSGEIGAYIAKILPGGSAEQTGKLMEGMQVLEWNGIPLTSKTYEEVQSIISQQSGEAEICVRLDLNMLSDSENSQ

T6: MPDZ_10, O75970
T6 sequence (O75970 1624-1722, limits assumed, looked up): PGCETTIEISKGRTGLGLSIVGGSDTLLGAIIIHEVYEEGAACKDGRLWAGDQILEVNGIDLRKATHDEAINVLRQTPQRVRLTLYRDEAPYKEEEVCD

T7: GRIP1_7, Q9Y3R0
T7 sequence (Q9Y3R0 999-1096, limits assumed, looked up): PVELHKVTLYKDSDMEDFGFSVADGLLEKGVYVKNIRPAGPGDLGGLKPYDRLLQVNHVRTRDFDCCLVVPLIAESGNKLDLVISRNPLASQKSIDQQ

T8: HTRA4, P83105
T8 sequence (P83105 378-476, limits assumed, looked up): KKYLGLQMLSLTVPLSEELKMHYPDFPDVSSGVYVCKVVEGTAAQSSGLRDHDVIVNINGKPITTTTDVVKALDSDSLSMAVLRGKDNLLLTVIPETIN

T9: NHERF3_4, Q5T2W1
T9 sequence (Q5T2W1 373-468, limits assumed, looked up): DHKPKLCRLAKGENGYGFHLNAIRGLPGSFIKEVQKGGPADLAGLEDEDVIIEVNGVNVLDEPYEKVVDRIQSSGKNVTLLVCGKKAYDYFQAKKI

T10: LIN7A, O14910
T10 sequence (O14910 103-200, limits assumed, looked up): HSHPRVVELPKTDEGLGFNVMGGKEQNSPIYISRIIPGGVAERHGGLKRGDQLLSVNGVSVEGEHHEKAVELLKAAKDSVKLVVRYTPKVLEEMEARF

T11: TX1BP3, O14907
T11 sequence (O14907 10-122, limits assumed, looked up): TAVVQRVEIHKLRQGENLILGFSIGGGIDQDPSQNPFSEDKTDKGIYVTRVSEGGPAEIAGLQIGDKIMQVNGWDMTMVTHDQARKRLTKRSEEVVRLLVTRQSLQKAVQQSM

T12: APBA2_2, Q99767
T12 sequence (Q99767 654-744, limits assumed, looked up): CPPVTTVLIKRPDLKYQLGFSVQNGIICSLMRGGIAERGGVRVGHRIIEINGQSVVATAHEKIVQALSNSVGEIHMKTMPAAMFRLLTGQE


Columns and labels:
Experiment in all cases: holdup assay
Set-up in all cases: key: below the threshold = too weak to quantify, mostly under pKd 3.1 to 4
Settings in all cases: plain residues with an end cap or a label only (N-terminal biotin on a linker: ado-ado)
DFNB31_2, Q9P202 = biological target: T1, DFNB31_2, Q9P202
RADIL, Q96JH8 = biological target: T2, RADIL, Q96JH8
MPP2, Q14168 = biological target: T3, MPP2, Q14168
FRMPD2_2, Q68DX3 = biological target: FRMPD2_2, Q68DX3
FRMPD2_2, Q68DX3, sequence (Q68DX3 944-1038): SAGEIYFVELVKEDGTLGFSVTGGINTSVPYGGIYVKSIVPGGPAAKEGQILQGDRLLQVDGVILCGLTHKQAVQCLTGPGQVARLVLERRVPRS

MAGI1_1, Q96QZ7 = biological target: MAGI1_1, Q96QZ7
MAGI1_1, Q96QZ7, sequence (Q96QZ7 1-106): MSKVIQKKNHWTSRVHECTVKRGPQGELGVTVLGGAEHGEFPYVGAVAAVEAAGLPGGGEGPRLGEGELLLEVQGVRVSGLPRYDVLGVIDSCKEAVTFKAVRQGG

MAGI3_2, Q5TCQ9 = biological target: MAGI3_2, Q5TCQ9
MAGI3_2, Q5TCQ9, sequence (Q5TCQ9 398-503): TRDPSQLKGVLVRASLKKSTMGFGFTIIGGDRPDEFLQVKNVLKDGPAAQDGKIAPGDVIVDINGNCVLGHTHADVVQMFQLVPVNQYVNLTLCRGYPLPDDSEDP

LNX2_2, Q8N448 = biological target: T4, LNX2_2, Q8N448
LNX1_3, Q8TBB1 = biological target: LNX1_3, Q8TBB1
LNX1_3, Q8TBB1, sequence (Q8TBB1 500-596): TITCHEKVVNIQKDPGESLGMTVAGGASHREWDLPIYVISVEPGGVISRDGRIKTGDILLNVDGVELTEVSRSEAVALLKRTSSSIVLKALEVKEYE

TJP2_1, Q9UDY2 = biological target: TJP2_1, Q9UDY2
TJP2_1, Q9UDY2, sequence (Q9UDY2 24-128): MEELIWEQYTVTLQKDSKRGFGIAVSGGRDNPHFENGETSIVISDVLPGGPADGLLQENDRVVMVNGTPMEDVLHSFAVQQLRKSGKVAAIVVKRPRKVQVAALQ

ARHGEF12, Q9NZN5-2 = biological target: ARHGEF12, Q9NZN5-2
ARHGEF12, Q9NZN5-2, sequence (Q9NZN5 other isoform, or with tags, fused parts or gaps): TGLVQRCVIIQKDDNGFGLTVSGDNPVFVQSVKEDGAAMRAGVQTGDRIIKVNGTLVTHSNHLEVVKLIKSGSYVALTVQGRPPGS

PCLO, Q9Y6V0 = biological target: T5, PCLO, Q9Y6V0
Inadl_8, Q8NI35 = biological target: Inadl_8, Q8NI35
Inadl_8, Q8NI35, sequence (Q8NI35 1425-1530): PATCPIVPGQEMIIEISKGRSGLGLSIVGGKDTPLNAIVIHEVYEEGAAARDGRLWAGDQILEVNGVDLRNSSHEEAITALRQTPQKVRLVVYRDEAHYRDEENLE

TJP1_2, Q07157 = biological target: TJP1_2, Q07157
TJP1_2, Q07157, sequence (Q07157 181-274): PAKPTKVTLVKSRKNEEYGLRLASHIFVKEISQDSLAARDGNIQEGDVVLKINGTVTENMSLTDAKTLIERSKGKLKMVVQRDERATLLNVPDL

MAGI1_2, Q96QZ7 = biological target: MAGI1_2, Q96QZ7
MAGI1_2, Q96QZ7, sequence (Q96QZ7 456-580): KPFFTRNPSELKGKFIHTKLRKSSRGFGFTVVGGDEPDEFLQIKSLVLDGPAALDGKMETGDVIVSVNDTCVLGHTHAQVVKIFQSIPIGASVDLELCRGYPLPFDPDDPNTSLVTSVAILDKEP

MPDZ_10, O75970 = biological target: T6, MPDZ_10, O75970
GRIP1_7, Q9Y3R0 = biological target: T7, GRIP1_7, Q9Y3R0
Inadl_9, Q8NI35 = biological target: Inadl_9, Q8NI35
Inadl_9, Q8NI35, sequence (Q8NI35 1530-1615): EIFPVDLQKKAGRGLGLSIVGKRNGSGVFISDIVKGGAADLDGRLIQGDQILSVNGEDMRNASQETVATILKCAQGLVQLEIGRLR

HTRA4, P83105 = biological target: T8, HTRA4, P83105
NHERF3_4, Q5T2W1 = biological target: T9, NHERF3_4, Q5T2W1
Inadl_5, Q8NI35 = biological target: Inadl_5, Q8NI35
Inadl_5, Q8NI35, sequence (Q8NI35 673-780): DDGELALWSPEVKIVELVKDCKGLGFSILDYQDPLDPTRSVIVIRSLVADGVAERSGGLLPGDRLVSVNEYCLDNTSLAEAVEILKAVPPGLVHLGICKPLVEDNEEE

LIN7A, O14910 = biological target: T10, LIN7A, O14910
Inadl_10, Q8NI35 = biological target: Inadl_10, Q8NI35
Inadl_10, Q8NI35, sequence (Q8NI35 1673-1763): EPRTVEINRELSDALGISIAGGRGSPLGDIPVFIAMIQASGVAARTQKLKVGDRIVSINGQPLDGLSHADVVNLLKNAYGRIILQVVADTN

IL16_3, Q14005 = biological target: IL16_3, Q14005
IL16_3, Q14005, sequence (Q14005 1107-1207): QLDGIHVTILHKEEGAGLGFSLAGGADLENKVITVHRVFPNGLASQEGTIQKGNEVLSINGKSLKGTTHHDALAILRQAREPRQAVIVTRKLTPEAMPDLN

TX1BP3, O14907 = biological target: T11, TX1BP3, O14907
APBA2_2, Q99767 = biological target: T12, APBA2_2, Q99767
FRMPD2_3, Q68DX3 = biological target: FRMPD2_3, Q68DX3
FRMPD2_3, Q68DX3, sequence (Q68DX3 1073-1166): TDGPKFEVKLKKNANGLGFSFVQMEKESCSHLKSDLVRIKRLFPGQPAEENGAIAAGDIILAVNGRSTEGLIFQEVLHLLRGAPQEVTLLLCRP

Binder	pKd (DFNB31_2, Q9P202)	pKd (RADIL, Q96JH8)	pKd (MPP2, Q14168)	pKd (FRMPD2_2, Q68DX3)	pKd (MAGI1_1, Q96QZ7)	pKd (MAGI3_2, Q5TCQ9)	pKd (LNX2_2, Q8N448)	pKd (LNX1_3, Q8TBB1)	pKd (TJP2_1, Q9UDY2)	pKd (ARHGEF12, Q9NZN5-2)	pKd (PCLO, Q9Y6V0)	pKd (Inadl_8, Q8NI35)	pKd (TJP1_2, Q07157)	pKd (MAGI1_2, Q96QZ7)	pKd (MPDZ_10, O75970)	pKd (GRIP1_7, Q9Y3R0)	pKd (Inadl_9, Q8NI35)	pKd (HTRA4, P83105)	pKd (NHERF3_4, Q5T2W1)	pKd (Inadl_5, Q8NI35)	other results
GTMFLRETSL [GUCY1A2, P33402]	4.53	below the threshold	below the threshold	below the threshold	below the threshold	4.46	below the threshold	below the threshold	below the threshold	4.93	below the threshold	3.9	below the threshold	4.24	3.67	below the threshold	below the threshold	3.85	4.38	below the threshold	pKd (LIN7A, O14910): 4.35; pKd (Inadl_10, Q8NI35): below the threshold; pKd (IL16_3, Q14005): below the threshold; pKd (TX1BP3, O14907): 5.31; pKd (APBA2_2, Q99767): below the threshold; pKd (FRMPD2_3, Q68DX3): below the threshold
GQNMTVSVVI [PRLHR, P49683]	below the threshold	4.26	below the threshold	below the threshold	4.22	below the threshold	5.11	below the threshold	below the threshold	4.13	below the threshold	3.8	3.69	below the threshold	below the threshold	below the threshold	below the threshold	4.15	3.73	below the threshold	pKd (LIN7A, O14910): below the threshold; pKd (Inadl_10, Q8NI35): below the threshold; pKd (IL16_3, Q14005): below the threshold; pKd (TX1BP3, O14907): below the threshold; pKd (APBA2_2, Q99767): below the threshold; pKd (FRMPD2_3, Q68DX3): below the threshold

More lines, main results first:

pKd (DFNB31_2, Q9P202)	pKd (RADIL, Q96JH8)	pKd (MPP2, Q14168)	pKd (FRMPD2_2, Q68DX3)	pKd (MAGI1_1, Q96QZ7)	pKd (MAGI3_2, Q5TCQ9)	pKd (LNX2_2, Q8N448)	pKd (LNX1_3, Q8TBB1)	pKd (TJP2_1, Q9UDY2)	pKd (ARHGEF12, Q9NZN5-2)	pKd (PCLO, Q9Y6V0)	pKd (Inadl_8, Q8NI35)	pKd (TJP1_2, Q07157)	pKd (MAGI1_2, Q96QZ7)	pKd (MPDZ_10, O75970)	pKd (GRIP1_7, Q9Y3R0)	pKd (Inadl_9, Q8NI35)	pKd (HTRA4, P83105)	pKd (NHERF3_4, Q5T2W1)	pKd (Inadl_5, Q8NI35)	Binder	other results
3.55	below the threshold	below the threshold	below the threshold	below the threshold	3.49	below the threshold	below the threshold	3.85	4.69	below the threshold	3.76	below the threshold	3.58	below the threshold	below the threshold	below the threshold	3.99	4.77	3.48	IKLETKKTKL [SLC15A2, Q16348]	pKd (LIN7A, O14910): below the threshold; pKd (Inadl_10, Q8NI35): below the threshold; pKd (IL16_3, Q14005): below the threshold; pKd (TX1BP3, O14907): 4.02; pKd (APBA2_2, Q99767): 3.52; pKd (FRMPD2_3, Q68DX3): below the threshold
below the threshold	below the threshold	below the threshold	below the threshold	below the threshold	below the threshold	below the threshold	below the threshold	below the threshold	below the threshold	below the threshold	below the threshold	below the threshold	below the threshold	below the threshold	below the threshold	below the threshold	below the threshold	below the threshold	below the threshold	FVFESRKEIL [TBPL1, P62380]	pKd (LIN7A, O14910): below the threshold; pKd (Inadl_10, Q8NI35): below the threshold; pKd (IL16_3, Q14005): below the threshold; pKd (TX1BP3, O14907): below the threshold; pKd (APBA2_2, Q99767): below the threshold; pKd (FRMPD2_3, Q68DX3): below the threshold
below the threshold	below the threshold	below the threshold	3.53	below the threshold	below the threshold	3.52	below the threshold	below the threshold	3.81	below the threshold	below the threshold	below the threshold	below the threshold	below the threshold	below the threshold	below the threshold	below the threshold	below the threshold	below the threshold	PLATCDETSI [SEMA4F, O95754]	pKd (LIN7A, O14910): below the threshold; pKd (Inadl_10, Q8NI35): below the threshold; pKd (IL16_3, Q14005): below the threshold; pKd (TX1BP3, O14907): below the threshold; pKd (APBA2_2, Q99767): below the threshold; pKd (FRMPD2_3, Q68DX3): below the threshold
